In article PMC5881884 (Biochimica et biophysica acta, 2017):

Molecular target: the molecule itself
Experiment: native gel or EMSA

B1: 14-3-3ζ pseudo-WT (C25A, C189A) (natural protein)
chain: MDKNELVQKAKLAEQAERYDDMAAAMKSVTEQGAELSNEERNLLSVAYKNVVGARRSSWRVVSSIEQKTEGAEKKQQMAREYREKIETELRDICNDVLSLLEKFLIPNASQAESKVFYLKMKGDYYRYLAEVAAGDDKKGIVDQSQQAYQEAFEISKKEMQPTHPIRLGLALNFSVFYYEILNSPEKAASLAKTAFDEAIAELDTLSEESYKDSTLIMQLLRDNLTLWTSDTQGDEAEAGEGGEN
With B1 the “stoichiometry N” value was 2.
